The source of these data is patent publication US20030170785A1.

In the assay the target is CaV1.2 (α1C) L-type calcium channel subunit. The assay can be described thus: cell-based or functional assay.

Turning to calcium channel β3 subunit, the Ca^2+ influx (fluorescence change after depolarization with 50 mM KCl) in transfected HEK 293 cells was found to be 3 fold.
